Source: the supplement of paper PMC10567573

B1: VPS39 (parent)
chain: QQVKCIITEEKVCMVCKKKIGNSA

Variants of: B1
Assay: protein stability index of a GFP-peptide fusion (GPS, HEK-293T) (PSI 1-6); higher = more stable
Conditions: c terminus: a fixed tail appended
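Note: lentivirally expressed fusions sorted by FACS into six bins by GFP to DsRed ratio, PSI derived from sequencing read proportions per bin multiplied by bin number.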

Row | Variant | protein stability index
1 | G21M | 2.13
2 | G21H | 2.93
3 | G21N | 3.01
4 | G21I | 3.17
5 | G21L | 2.31
6 | G21D | 2.81
7 | G21P | 2.55
8 | G21F | 2.87
9 | G21C | 3.19
10 | G21A | 2.98
11 | G21E | 3.32
12 | G21K | 3.08
13 | K19F | 1.72
14 | K19Y | 2.09
15 | K19R | 2.28
16 | K19S | 2.25
17 | K19C | 3.48
18 | K19T | 2.66
19 | K19E | 2.89
20 | K19H | 2.12
21 | K19G | 2.48
22 | K19Q | 2.19
23 | K19M | 1.67
24 | K19L | 2.56

Row | Variant | protein stability index
25 | K19W | 1.76
26 | K19V | 2.5
27 | K19P | 2.14
28 | K19N | 2.15
29 | K19A | 2.38
30 | K19D | 3.52
31 | K18R | 2.33
32 | K18T | 2.08
33 | K18S | 3.09
34 | K18Q | 2.5
35 | K18Y | 1.41
36 | K18H | 3.24
37 | K18N | 2.94
38 | K18A | 2.88
39 | K18C | 2.02
40 | K18W | 1.02
41 | K18F | 1.98
42 | K18D | 3.4
43 | K18I | 2.43
44 | K18V | 1.78
45 | K18E | 3.09
46 | K18G | 2.56
47 | K18L | 2.16
48 | K18P | 2.37

Row | Variant | protein stability index
49 | K18M | 1.57
50 | K4F | 1.42
51 | K4L | 1.77
52 | K4E | 3.28
53 | K4S | 2.22
54 | K4D | 2.68
55 | K4I | 1.19
56 | K4V | 2.19
57 | K4T | 2.44
58 | K4H | 2.44
59 | K4N | 2.83
60 | K4Q | 2.77
61 | K4A | 2.72
62 | K4R | 2.53
63 | K4C | 3.6
64 | K4G | 2.81
65 | K4Y | 1.42
66 | K4P | 3.12
67 | K4W | 2.25
68 | K4M | 1.83
69 | T8D | 3.08
70 | T8Y | 2.6
71 | T8H | 2.81
72 | T8K | 2.47

Row | Variant | protein stability index
73 | T8A | 2.45
74 | T8Q | 3.34
75 | T8F | 1.52
76 | T8P | 4.09
77 | T8R | 2.45
78 | T8E | 3.48
79 | T8I | 2.12
80 | T8C | 2.48
81 | T8V | 2.12
82 | T8N | 2.9
83 | T8W | 2.87
84 | T8L | 2.16
85 | T8G | 3.42
86 | E10W | 2.44
87 | E10R | 2.23
88 | E10I | 2.34
89 | E10Q | 2.29
90 | E10L | 1.47
91 | E10D | 1.95
92 | E10M | 2.4
93 | E10Y | 2.65
94 | E10A | 1.9
95 | E10G | 2.41
96 | E10C | 3.05

Row | Variant | protein stability index
97 | E10S | 2.03
98 | E10N | 2.01
99 | E10F | 1.97
100 | E10P | 2.69
101 | E10H | 2.13
102 | E10K | 2.54
103 | E10T | 2.41
104 | V15H | 3.43
105 | V15A | 3.32
106 | V15L | 2.82
107 | V15W | 2.97
108 | V15N | 3.08
109 | V15S | 3.74
110 | V15I | 2.27
111 | V15Q | 2.6
112 | V15Y | 2.17
113 | V15E | 4.38
114 | V15M | 2.83
115 | V15D | 3.34
116 | V15P | 3.99
117 | V15K | 3.05
118 | V15R | 3.07
119 | V15C | 3.26
120 | V15T | 3.68

Row | Variant | protein stability index
121 | V15F | 2.92
122 | V15G | 2.71
123 | K11M | 1.8
124 | K11H | 3.3
125 | K11I | 2.44
126 | K11R | 2.9
127 | K11L | 1.87
128 | K11Q | 2.84
129 | K11A | 3.64
130 | K11N | 2.89
131 | K11W | 2.08
132 | K11T | 2.55
133 | K11G | 2.35
134 | K11C | 4.08
135 | K11P | 3.15
136 | K11E | 2.87
137 | K11S | 2.9
138 | K11F | 1.75
139 | K11V | 2.39
140 | K11Y | 1.77
141 | K11D | 2.52
142 | C13E | 4.41
143 | C13N | 4.4
144 | C13H | 3.62

Row | Variant | protein stability index
145 | C13G | 3.48
146 | C13L | 3.1
147 | C13D | 4.67
148 | C13A | 3.88
149 | C13Y | 2.91
150 | C13W | 2.6
151 | C13F | 2.54
152 | C13S | 3.52
153 | C13R | 3.95
154 | C13Q | 3.78
155 | C13T | 3.83
156 | C13M | 2.98
157 | C13V | 2.59
158 | C13P | 3.78
159 | C13K | 2.82
160 | C13I | 3.09
161 | V3L | 2.77
162 | V3I | 2.38
163 | V3W | 1.49
164 | V3Q | 3.32
165 | V3Y | 2.58
166 | V3T | 2.82
167 | V3S | 3.17
168 | V3N | 2.8

Row | Variant | protein stability index
169 | V3P | 3.49
170 | V3K | 2.89
171 | V3R | 2.5
172 | V3M | 2.8
173 | C16W | 2.5
174 | C16T | 3.72
175 | C16H | 3.79
176 | C16G | 4.28
177 | C16L | 3.07
178 | C16A | 3.96
179 | C16P | 4.22
180 | C16M | 3.13
181 | C16N | 3.88
182 | C16E | 4.29
183 | C16S | 3.45
184 | C16D | 4.91
185 | C16Y | 3.69
186 | C16Q | 3.93
187 | C16R | 4.5
188 | C16K | 3.41
189 | C16I | 2.19
190 | C16F | 3.15
191 | V12D | 3.87
192 | V12N | 3.68

Row | Variant | protein stability index
193 | V12Q | 2.5
194 | V12A | 3.41
195 | V12C | 2.09
196 | V12G | 3.55
197 | V12F | 2.11
198 | V12P | 3.44
199 | V12L | 2.86
200 | V12S | 3.41
201 | V12R | 2.88
202 | V12E | 3.96
203 | V12Y | 2.31
204 | V12T | 2.69
205 | V12H | 2.64
206 | V12M | 2.81
207 | V12K | 2.94
208 | V12I | 3.06
209 | V12W | 1.98
210 | I7N | 2.84
211 | I7Y | 3.28
212 | I7R | 2.86
213 | I7V | 3.4
214 | I7D | 3.49
215 | I7Q | 2.76
216 | I7W | 2.46

Row | Variant | protein stability index
217 | I7M | 3.54
218 | I7F | 2.97
219 | I7A | 3.38
220 | I7P | 4.23
221 | I7K | 2.9
222 | I7T | 2.69
223 | I7E | 3.01
224 | I7C | 4.47
225 | I7H | 4.39
226 | I7S | 3.06
227 | I7L | 2.11
228 | I7G | 2.77
229 | I20T | 2.89
230 | I20Q | 3.53
231 | I20P | 3.17
232 | I20N | 2.69
233 | I20C | 3.26
234 | I20E | 4.03
235 | I20L | 3.15
236 | I20K | 3.58
237 | I20S | 3.67
238 | I20M | 3.33
239 | I20R | 3.26
240 | I20A | 3.35

Row | Variant | protein stability index
241 | I20H | 4.29
242 | I20F | 3.06
243 | I20V | 1.95
244 | I20Y | 3.15
245 | I20G | 2.79
246 | I20D | 3.51
247 | K17N | 3.05
248 | K17Q | 3.11
249 | K17M | 2.29
250 | K17G | 3.58
251 | K17E | 3.21
252 | K17D | 3.68
253 | K17I | 1.74
254 | K17R | 2.27
255 | K17C | 3.34
256 | K17W | 2.66
257 | K17T | 2.5
258 | K17H | 2.46
259 | K17L | 1.42
260 | K17Y | 3.09
261 | K17P | 3
262 | K17V | 1.54
263 | K17F | 2.85
264 | K17S | 2.82

Row | Variant | protein stability index
265 | E9T | 2.08
266 | E9P | 2.46
267 | E9C | 1.8
268 | E9Y | 1.9
269 | E9Q | 1.85
270 | E9D | 3.29
271 | E9L | 1.73
272 | E9M | 1.33
273 | E9I | 1.81
274 | E9N | 1.87
275 | E9A | 2.22
276 | E9K | 2.49
277 | E9H | 1.85
278 | E9V | 1.95
279 | E9R | 1.54
280 | E9G | 2
281 | E9F | 2.94
282 | E9S | 3.77
283 | E9W | 1.35
284 | I6S | 3.5
285 | I6H | 3.47
286 | I6P | 4.07
287 | I6N | 3.25
288 | I6D | 3.82

Row | Variant | protein stability index
289 | I6G | 2.47
290 | I6T | 3.38
291 | I6L | 2.45
292 | I6V | 3.05
293 | I6C | 3.34
294 | I6M | 2.93
295 | I6A | 2.67
296 | I6K | 3.46
297 | I6F | 2.6
298 | I6Q | 3.13
299 | I6W | 1.75
300 | I6R | 2.6
301 | I6E | 3.96
302 | I6Y | 2.49
303 | M14K | 3.44
304 | M14Y | 2.57
305 | M14F | 2.89
306 | M14V | 2.8
307 | M14C | 4.14
308 | M14E | 3.61
309 | M14I | 2.14
310 | M14H | 3.13
311 | M14Q | 3.06
312 | M14P | 3.15

Row | Variant | protein stability index
313 | M14W | 2.02
314 | M14N | 2.67
315 | M14A | 2.49
316 | M14T | 3.3
317 | C5N | 2.79
318 | C5P | 3.32
319 | C5F | 1.96
320 | C5W | 1.94
321 | C5Q | 3.07
322 | C5E | 3.75
323 | C5M | 1.99
324 | C5H | 3.21
325 | C5L | 2.34
326 | C5T | 3.16
327 | C5R | 3.48
328 | C5A | 3.02
329 | C5I | 2.24
330 | C5V | 2.22
331 | C5Y | 2.69
332 | C5K | 3.61
333 | C5D | 3.86
334 | C5G | 2.82
